Laboratory results published in paper PMC4338161.

Biological target: BK α W176C (S2–S3 loop) in the pWTb background (mouse)
Assay: cross-linking

For “BK β1 subunit G12C (TM1 flank) in the pWT β1 background (from UniProt Q16558-1 1-191) (natural protein)”, which extent of cross-linking is on record?
Its extent of cross-linking is 80%.
